Numbering of substitutions follows the chain as printed. One block for each molecule: values may come before it.
Columns and labels:
[1] = test system: IL1-induced NFκB activity; test: HEK-BlueIL1β NFκB Reporter Assay; type: cell-based; conditions: nM range, read-out: IC50, inhibition of IL1-induced NFκB activity
Experimental: The HEK-Blue IL1β (Invivogen, Cat #hkb-il1b) cell line was used to monitor NFκB activity upon stimulation with IL1β cytokine. In this cell line the secreted embryonic alkaline phosphatase reporter gene (SEAP) is inducibly expressed under the control of IFN-β minimal promoter fused to NFκB/AP-1. Specificity to IL1β cytokine was achieved by blockage of TNF-α response. The cells were maintained in the presence of hygromycin (200 μg/ml) and zeocin (100 μg/ml).
For the functional assay, cells were plated at a density of 5×10^4 cells/well in 96-well plates. Cells were treated with each antibody at the highest concentration of 200 μg/ml followed by seven serial 1:3 dilutions and incubated for 45 minutes at 37° C./5% CO2 in humified incubator. Cells were then stimulated with IL1β ([…]) and incubated overnight at 37° C./5% CO2 in humified incubator. Every treatment was conducted in triplicates. Following, supernatants from each well were mixed with Quanti-Blue substrate (Invivogen, CA USA; Cat #rep-qb1) according to manufacturer's recommendations and secreted SEAP was measured using spectrophotometer at 650 nm.

[2] = test system: IL33-induced NFκB activity; test: HEK-BlueIL33 NFκB Reporter Assay; type: cell-based, human; conditions: nM range, read-out: IC50, inhibition of IL33-induced NFκB activity
From the text: HEK-Blue IL33 (Invivogen, Cat #hkb-hil33) cell line was used to monitor NFκB activity upon stimulation with IL33 cytokine. The secreted embryonic alkaline phosphatase reporter gene (SEAP) is inducible expressed under the control of IFN-β minimal promoter fused to NFκB/AP-1. HEK-BlueIL33 cells were also generated upon stable transfection with human IL1RL1 (ST2) gene. Specificity to IL33 cytokine was achieved by blockage of TNF-α and IL1 response. Cells are maintained in the presence of hygromycin (200 μg/ml), zeocin (100 μg/ml) and blasticidin (10 μg/ml).
For the functional assay, cells were plated at a density of 5×10^4 cells/well in 96-well plates. Cells were treated with each antibody at the highest concentration of 200 μg/ml followed by seven serial 1:3 dilutions and incubated for 45 minutes at 37° C./5% CO^2 in humified incubator. Cells were then stimulated with IL33 (12 μM) and incubated overnight at 37° C./5% CO2 in humified incubator. Every treatment was conducted in triplicates. Following, supernatants from each well were mixed with Quanti-Blue substrate (Invivogen, Cat #rep-qb1) according to manufacturer's recommendations and secreted SEAP was measured using spectrophotometer at 650 nm.

hIL1RAP = target: T1, hIL1RAP (Homo sapiens, UniProt Q9NPH3); test: Kinetics of IL1RAP mAbs by Octet, human IL1RAP; type: binding; parameters: extracellular domain His-tagged, Cat #10121-H08H; His; purchased Sino Biological lot MB08MA1301 (catalogue number not given)
T1 sequence (Q9NPH3 21-367 limits assumed): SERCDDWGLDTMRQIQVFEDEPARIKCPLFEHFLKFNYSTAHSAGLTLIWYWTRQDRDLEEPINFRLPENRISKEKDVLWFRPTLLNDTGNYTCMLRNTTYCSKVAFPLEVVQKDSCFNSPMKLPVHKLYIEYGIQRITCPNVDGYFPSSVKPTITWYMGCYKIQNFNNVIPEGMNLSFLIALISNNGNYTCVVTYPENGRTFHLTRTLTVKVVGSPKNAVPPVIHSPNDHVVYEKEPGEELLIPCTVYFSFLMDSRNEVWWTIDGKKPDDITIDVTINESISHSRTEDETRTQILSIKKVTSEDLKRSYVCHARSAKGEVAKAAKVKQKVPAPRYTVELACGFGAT
Experimental: (§1) Antibodies were diluted in kinetics buffer (0.1% BSA, 0.02% Tween-20 and 0.05% NaN3 in PBS) and loaded onto 16 channel anti-mouse IgG Fc capture sensors (AMC, Cat #2001073; Sartorius, Göttingen, Germany). Human, huIL1RAP-His (Sino Biological, lot: MB08MA1301), and monkey, cyIL1RAP-His (Lake Pharma, NY, USA; lot:16205819371) proteins were titrated starting from the highest concentration of 100 nM and followed by 50 nM and 25 nM. Purified antibodies were loaded at 5 μg/ml in kinetics buffer. The experimental parameters selected to determine the kinetic constants were Baseline for 60 s, Loading of antibody to sensor for 180 s, Association of analyte to antibody for 120 s, Dissociation for 1200 s and Regeneration in 10 mM Glycine pH 1.7 for 4×30 s.
(§2) Regeneration cycle tracking was selected for 12 cycles. Binding to human and cynomolgus IL1RAP was measured and KD (M) kinetics were calculated. Also, the disassociation rate (Kdis) (1/s) and association rate (Kon) (1/Ms) kinetics were calculated (data not shown).

cyIL1RAP = test: Kinetics of IL1RAP mAbs by Octet, cynomolgus IL1RAP; type: binding
Experimental: as §1, §2

[3] = test system: patient-derived AML samples; test: Cell viability of patient-derived AML samples, CellTiter-Glo; type: cell-based, human; conditions: 15 patient-derived AML samples; 0.1-100 nM, 6 days
Experimental: Primary patient-derived AML cells collected using leukapheresis or peripheral blood draw were selected based on expression levels of IL1RAP, IL1R1 and IL1RL1. On study day 0, cell viability was calculated, and cells were seeded at a density of 20,000 viable cells/well in 96-well plates. Cells were treated on Day 0 with IL1RAP monoclonal antibodies at a concentration of 100 nM followed by 5-fold serial dilutions. Cytarabine treatment (5 μM) was used as a positive control. Plates were kept at 37° C./5% CO2 in humified incubator and media was not changed during the duration of the assay. On Day 6, plates were removed from incubator and equilibrated to room temperature for up to 30 minutes. Then CellTiter-Glo was added to wells (100 μl) and plates were mixed for 2 minutes on plate rocker, followed by 10 minutes incubation at room temperature. Luminescent signal was recorded using Tecan plate reader and IC50s were calculated.

IC50 [1]: 3.19 nM | IC50 [2]: 6.62 nM | hIL1RAP kdis(1/s) (hIL1RAP): 0.000234 s⁻¹ | hIL1RAP kon(1/Ms) (hIL1RAP): 392100 M⁻¹ s⁻¹
B1: 74804_07K10A: anti-IL1RAP mAb; VH SEQ ID NO:5, VL SEQ ID NO:22, κ light chain (antibody, V domains shown)
VH: QVQLLQSGAEVKKPGSSVKVSCRASGGTFSIYAIDWVRQAPGQGLEWMGGIIPISGTENSAQNFQDRITITADKSTNTAYMELSSLRSEDTAVYYCARNGATSDAFDIWGQGTMVTVSS
VL: EIVLTQSPGTLSLSPGERATLSCRASLSVSSNYLAWFQQRPGQAPRLLIYGVSRRATGIPDRFSGSGSGTDFTLTISRLEPEDFAVYYCQQYGSSPLTFGGGTKVEIK
modifications: 74804_07K10A VH; 74804_07K10A VL, 74804_29D13A VL and 74804_43F04A VL
cyIL1RAP kdis(1/s) (cyIL1RAP): 0.000283 s⁻¹ | cyIL1RAP kon(1/Ms) (cyIL1RAP): 376800 M⁻¹ s⁻¹

IC50 [1]: 1.85 nM | IC50 [2]: 8.75 nM | hIL1RAP kdis(1/s) (hIL1RAP): 0.000361 s⁻¹ | hIL1RAP kon(1/Ms) (hIL1RAP): 336100 M⁻¹ s⁻¹
B2: 74804_29D13A: anti-IL1RAP mAb; VH SEQ ID NO:6, VL SEQ ID NO:22, κ light chain (antibody, V domains shown)
VH: B1 VH with R23K, S55F, E58A, N63K, D66G, I68V, N77S, I108M
VL: B1 VL
modifications: 74804_12A21B VH and 74804_29D13A VH; 74804_07K10A VL, 74804_29D13A VL and 74804_43F04A VL
cyIL1RAP kdis(1/s) (cyIL1RAP): 0.00065 s⁻¹ | cyIL1RAP kon(1/Ms) (cyIL1RAP): 329600 M⁻¹ s⁻¹

IC50 [1]: 2.5 nM | IC50 [2]: 13 nM | hIL1RAP kdis(1/s) (hIL1RAP): 0.000301 s⁻¹ | hIL1RAP kon(1/Ms) (hIL1RAP): 343500 M⁻¹ s⁻¹
B3: 74804_51C10A: anti-IL1RAP mAb; VH SEQ ID NO:8, VL SEQ ID NO:24, κ light chain (antibody, V domains shown)
VH: B1 VH with R23K, S30N, S55F, E58A, N63K, D66G, I68V
VL: B1 VL with L27Q
modifications: 74804_51C10A VH; 74804_51C10A VL
cyIL1RAP kdis(1/s) (cyIL1RAP): 0.000459 s⁻¹ | cyIL1RAP kon(1/Ms) (cyIL1RAP): 325600 M⁻¹ s⁻¹

IC50 [1]: 0.446 nM | IC50 [2]: 2.72 nM | hIL1RAP kdis(1/s) (hIL1RAP): 0.000491 s⁻¹ | hIL1RAP kon(1/Ms) (hIL1RAP): 294400 M⁻¹ s⁻¹
B4: 74804_05B24A: anti-IL1RAP mAb; VH SEQ ID NO:10, VL SEQ ID NO:26, κ light chain (antibody, V domains shown)
VH: EVQLVDSGGGLVKPGGSLRLSCAATGFTFSNVWMSWVRQGSGKGLEWVGRIKSKTDGGTIDYAAPVKGRFTISRDDPKNTLYLQMNSLKTEDTAVYYCTTGELLGFDYWGQGTLVTVSS
VL: DIVMTQSPLSLPVTPGEPASISCRSGQSLLHNNGFNCLAWYLQKPGQSPQLLIYLGSNRASGVPDRFSGSGSGTDFTLKISRVEAEDVGVFYCMQTLQTPITFGQGTRLEIK
modifications: 74804_05B24A VH; 74804_05B24A VL
cyIL1RAP kdis(1/s) (cyIL1RAP): 0.000563 s⁻¹ | cyIL1RAP kon(1/Ms) (cyIL1RAP): 267900 M⁻¹ s⁻¹ | Inhibition of viability [3]: inhibition of viability of patient-derived AML samples

IC50 [1]: 1.73 nM | IC50 [2]: 4.81 nM | hIL1RAP kdis(1/s) (hIL1RAP): 0.00037 s⁻¹ | hIL1RAP kon(1/Ms) (hIL1RAP): 227800 M⁻¹ s⁻¹
B5: 74804_18L05A: anti-IL1RAP mAb; VH SEQ ID NO:4, VL SEQ ID NO:21, κ light chain (antibody, V domains shown)
VH: QVQLVQSGAEVKKPGASVKVSCKTSGYTFTSCCMHWVRQAPGQGLEWMGIINPSVGSTSYAQKFQGIVTMTRDTSTSTVYMELSSLRSEDTAVYYCAVDSSGSRYYYGMDVWGQGTTVTVSS
VL: EIVMTQSPATLSVSPGERATLSCRASQSVRSNLAWYQQRPGQAPRLLIYGTSTRATGIPARFSGSGSGTEFTLTISSLQSEDFAVYYCQQYNYWPYTFGQGTKLEIK
modifications: 74804_18L05A VH; 74804_18L05A VL
cyIL1RAP kdis(1/s) (cyIL1RAP): 0.000954 s⁻¹ | cyIL1RAP kon(1/Ms) (cyIL1RAP): 221100 M⁻¹ s⁻¹

IC50 [1]: 1.77 nM | IC50 [2]: 6.55 nM | hIL1RAP kdis(1/s) (hIL1RAP): 0.000337 s⁻¹ | hIL1RAP kon(1/Ms) (hIL1RAP): 154500 M⁻¹ s⁻¹
B6: 74804_25H09A: anti-IL1RAP mAb; VH SEQ ID NO:9, VL SEQ ID NO:25, κ light chain (antibody, V domains shown)
VH: QVQLVQSGAEVKKPGSSVKVSCKASGDTFSNYAITWVRQAPGQGLEWIVGFSPIFGTANYAQKFQGRVTITADKSTSTAYMELSSLISEDTAVYYCAWGSGNFNWFDPWGQGTLVTVSS
VL: AIRMTQSPSSFSASTGDRVTITCRASQGISSYLAWYQQKPGKAPKLLIYAASTLQSGVPSRFSGSGSGTDFTLTISSLQSEDFATYYCQQYYSYPLTFGGGTKVEIK
modifications: 74804_25H09A VH; 74804_25H09A VL
cyIL1RAP kdis(1/s) (cyIL1RAP): 0.000297 s⁻¹ | cyIL1RAP kon(1/Ms) (cyIL1RAP): 142000 M⁻¹ s⁻¹

IC50 [1]: 1.96 nM | IC50 [2]: 8.31 nM | hIL1RAP kdis(1/s) (hIL1RAP): 0.000747 s⁻¹ | hIL1RAP kon(1/Ms) (hIL1RAP): 350400 M⁻¹ s⁻¹
B7: 74804_27I24A: anti-IL1RAP mAb; VH SEQ ID NO:13, VL SEQ ID NO:29, λ light chain (antibody, V domains shown)
VH: EVQLVESGGGLVKPGGSLRLSCAASGFTFITYSMNWVRQAPGKGLEWVSSISSISSYIYYADSVKGRFTISRDNAKNSLYLQMDSLRAEDSAVYYCAREGIVGPTGYFDSWGQGTLVTVSS
VL: QSVLTQPPSVSAAPGQKVTISCSGSSSNIGNHYVSWYQQLPGTAPKLLIYDNNKRPSGIPDRFSGSKSGTSATLGITGLQTGDEADYYCGTWDSRLSAYWVFGGGTKLTVL
modifications: 74804_27I24A VH; 74804_27I24A VL
cyIL1RAP kdis(1/s) (cyIL1RAP): 0.001071 s⁻¹ | cyIL1RAP kon(1/Ms) (cyIL1RAP): 379500 M⁻¹ s⁻¹ | Inhibition of viability [3]: inhibition of viability of patient-derived AML samples

Source: US20240392013A1, “IL1RAP ANTIBODIES AND USES THEREOF” (STELEXIS THERAPEUTICS, LLC, priority 2021, published 2024)
